This is an account of results in the supplement of paper PMC5998384.

The test system of data set [1] is HeLa Kyoto. The data set can be described thus: solubility in G1/S (NP-40 vs SDS abundance) (log2 ratio); higher = more soluble. Particulars: cell cycle stage: G1/S.
The subject of data set [2] is HeLa Kyoto. The data set can be described thus: melting temperature (median over replicates), in situ; higher = more thermally stable.
The test system of data set [3] is HeLa Kyoto. The data set can be described thus: solubility change mitosis vs G1/S (difference of NP-40 vs SDS log2 ratios) (log2 ratio difference); higher = more soluble in mitosis.
In data set [4] the test system is HeLa Kyoto. The data set can be described thus: thermal stability score vs G1/S (z-score of summed log2 fold changes over temperatures); higher = more thermally stable than in G1/S.
The mark [5] stands for this setting: cell cycle stage: early G1 (4.5 h after nocodazole release).
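Wherever melting temperature (median over replicates), in situ is given: HeLa Kyoto cells synchronized by double thymidine or nocodazole block, proteins quantified by TMT10plex mass spectrometry, three independent biological replicates.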
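Wherever solubility change mitosis vs G1/S (difference of NP-40 vs SDS log2 ratios) is given: synchronized HeLa Kyoto cells (double thymidine block for G1/S, nocodazole release for mitosis), protein amounts in NP-40 versus SDS lysates quantified by mass spectrometry, three biological replicates.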
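Wherever solubility in G1/S (NP-40 vs SDS abundance) is given: HeLa Kyoto cells arrested at G1/S by double thymidine block, proteins quantified by TMT10plex mass spectrometry in mild NP-40 versus SDS extracts, three biological replicates.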
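Wherever thermal stability score vs G1/S (z-score of summed log2 fold changes over temperatures) is given: synchronized HeLa Kyoto cells, proteins quantified by TMT10plex mass spectrometry, three biological replicates, mitosis taken 0.5 h after nocodazole release, G1/S directly after double thymidine block.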

As to “MDLRVGQRPPVEPPPEPTLLALQRPQRLHHHLFLAGLQQQRSVEPMRLSMDTPMPELQVGPQEQELRQLLHKDKSKRSAVASSVVKQKLAEVILKKQQAALERTVHPNSPGIPYRTLEPLETEGATRSMLSSFLPPVPSLPSDPPEHFPLRKTVSEPNLKLRYKPKKSLERRKNPLLRKESAPPSLRRRPAETLGDSSPSSSSTPASGCSSPNDSEHGPNPILGSEALLGQRLRLQETSVAPFALPTVSLLPAITLGLPAPARADSDRRTHPTLGPRGPILGSPHTPLFLPHGLEPEAGGTLPSRLQPILLLDPSGSHAPLLTVPGLGPLPFHFAQSLMTTERLSGSGLHWPLSRTRSEPLPPSATAPPPPGPMQPRLEQLKTHVQVIKRSAKPSEKPRLRQIPSAEDLETDGGGPGQVVDDGLEHRELGHGQPEARGPAPLQQHPQVLLWEQQRLAGRLPRGSTGDTVLLPLAQGGHRPLSRAQSSPAAPASLSAPEPASQARVLSSSETPARTLPFTTGLIYDSVMLKHQCSCGDNSRHPEHAGRIQSIWSRLQERGLRSQCECLRGRKASLEELQSVHSERHVLLYGTNPLSRLKLDNGKLAGLLAQRMFVMLPCGGVGVDTDTIWNELHSSNAARWAAGSVTDLAFKVASRELKNGFAVVRPPGHHADHSTAMGFCFFNSVAIACRQLQQQSKASKILIVDWDVHHGNGTQQTFYQDPSVLYISLHRHDDGNFFPGSGAVDEVGAGSGEGFNVNVAWAGGLDPPMGDPEYLAAFRIVVMPIAREFSPDLVLVSAGFDAAEGHPAPLGGYHVSAKCFGYMTQQLMNLAGGAVVLALEGGHDLTAICDASEACVAALLGNRVDPLSEEGWKQKPNLNAIRSLEAVIRVHSKYWGCMQRLASCPDSWVPRVPGADKEEVEAVTALASLSVGILAEDRPSEQLVEEEEPMNL [HDAC7]”, the “solubility in G1/S (log2)” value in data set [1] came out at 0.129. In addition, the melting temperature in data set [2] (cell cycle stage: G1/S) worked out at 53 °C; in data set [2] (cell cycle stage: mitosis) it was 52.3 °C. Further, the “solubility change mitosis (log2)” value in data set [3] worked out at 0.0342. For the same substance, the thermal stability score in data set [4] (setting [5]) is 0.178; in data set [4] (cell cycle stage: mitosis), -0.224.

“MDLWPGAWMLLLLLFLLLLFLLPTLWFCSPSAKYFFKMAFYNGWILFLAVLAIPVCAVRGRNVENMKILRLMLLHIKYLYGIRVEVRGAHHFPPSQPYVVVSNHQSSLDLLGMMEVLPGRCVPIAKRELLWAGSAGLACWLAGVIFIDRKRTGDAISVMSEVAQTLLTQDVRVWVFPEGTRNHNGSMLPFKRGAFHLAVQAQVPIVPIVMSSYQDFYCKKERRFTSGQCQVRVLPPVPTEGLTPDDVPALADRVRHSMLTVFREISTDGRGGGDYLKKPGGGG [AGPAT1]”: in data set [1], the “solubility in G1/S (log2)” value was -0.318. Besides, the melting temperature is 53.3 °C in data set [2] (cell cycle stage: G1/S) and 52.7 °C in data set [2] (cell cycle stage: mitosis). The “solubility change mitosis (log2)” value in data set [3] was found to be 0.0448. The thermal stability score was 0.708 in data set [4] (setting [5]) and 0.125 in data set [4] (cell cycle stage: mitosis).

For the substance “MDMGNQHPSISRLQEIQKEVKSVEQQVIGFSGLSDDKNYKKLERILTKQLFEIDSVDTEGKGDIQQARKRAAQETERLLKELEQNANHPHRIEIQNIFEEAQSLVREKIVPFYNGGNCVTDEFEEGIQDIILRLTHVKTGGKISLRKARYHTLTKICAVQEIIEDCMKKQPSLPLSEDAHPSVAKINFVMCEVNKARGVLIALLMGVNNNETCRHLSCVLSGLIADLDALDVCGRTEIRNYRREVVEDINKLLKYLDLEEEADTTKAFDLRQNHSILKIEKVLKRMREIKNELLQAQNPSELYLSSKTELQGLIGQLDEVSLEKNPCIREARRRAVIEVQTLITYIDLKEALEKRKLFACEEHPSHKAVWNVLGNLSEIQGEVLSFDGNRTDKNYIRLEELLTKQLLALDAVDPQGEEKCKAARKQAVRLAQNILSYLDLKSDEWEY [BAG5]”, the “solubility in G1/S (log2)” value in data set [1] was 0.621. The results for the melting temperature in data set [2] (cell cycle stage: G1/S) and in data set [2] (cell cycle stage: mitosis) were 49.6 °C and 50.4 °C, respectively. In data set [3], the “solubility change mitosis (log2)” value is -0.166. Also, the thermal stability score in data set [4] (setting [5]) turned out to be 1.27; in data set [4] (cell cycle stage: mitosis), 1.14.

For MDN1, the “solubility in G1/S (log2)” value in data set [1] was -0.665. For the same substance, the melting temperature came to 51.1 °C in data set [2] (cell cycle stage: G1/S) and 50.5 °C in data set [2] (cell cycle stage: mitosis). Moreover, the “solubility change mitosis (log2)” value in data set [3] worked out at 0.182. For the same substance, the values for the thermal stability score in data set [4] (setting [5]) and in data set [4] (cell cycle stage: mitosis) were 0.349 and 1.35, respectively.

With “MDNMSITNTPTSNDACLSIVHSLMCHRQGGESETFAKRAIESLVKKLKEKKDELDSLITAITTNGAHPSKCVTIQRTLDGRLQVAGRKGFPHVIYARLWRWPDLHKNELKHVKYCQYAFDLKCDSVCVNPYHYERVVSPGIDLSGLTLQSNAPSSMMVKDEYVHDFEGQPSLSTEGHSIQTIQHPPSNRASTETYSTPALLAPSESNATSTANFPNIPVASTSQPASILGGSHSEGLLQIASGPQPGQQQNGFTGQPATYHHNSTTTWTGSRTAPYTPNLPHHQNGHLQHHPPMPPHPGHYWPVHNELAFQPPISNHPAPEYWCSIAYFEMDVQVGETFKVPSSCPIVTVDGYVDPSGGDRFCLGQLSNVHRTEAIERARLHIGKGVQLECKGEGDVWVRCLSDHAVFVQSYYLDREAGRAPGDAVHKIYPSAYIKVFDLRQCHRQMQQQAATAQAAAAAQAAAVAGNIPGPGSVGGIAPAISLSAAAGIGVDDLRRLCILRMSFVKGWGPDYPRQSIKETPCWIEIHLHRALQLLDEVLHTMPIADPQPLD [SMAD4]”, the “solubility in G1/S (log2)” value in data set [1] is -0.0138. In addition, the melting temperature was determined as 51.3 °C in data set [2] (cell cycle stage: G1/S) and 50.9 °C in data set [2] (cell cycle stage: mitosis). In data set [3], the “solubility change mitosis (log2)” value is -0.03. Besides, the thermal stability score in data set [4] (setting [5]) was found to be 0.424; in data set [4] (cell cycle stage: mitosis) it was 0.695.
